Experimental data: US6200577A, “Anti-herpesviral agents and assays therefor” (priority 1996, dated 2001)
“Also recorded” adds a separate entry of the source.

How the values were obtained:
VP16 = molecular target: T1, VP16 (Human herpesvirus 1, UniProt P06492); experiment: ELISA of direct binding of VP16 to plate-coated peptides; parameters: species or system HSV-1; details: wells coated with peptide up to 500 μg/ml; VP16 1.6 μg/ml; FIG. 10
T1 construct: Plasmid pETVP16 was used to express full-length VP16 under the control of the T7 RNA polymerase promoter; made in house; host or cells: E. coli BL21(DE3)
Method: FIG. 10 Binding of VP16 to peptides. Microtitre plates were coated with 5-fold dilutions of peptides ranging from 500 μg/ml to 1 μg/ml and blocked with PBS/10% NCS. VP16 was then added to a final concentration of 1.6 μg/ml and detected with LP1. The legend for the peptides added is shown to the right of the graph.
(§1) Dilutions of proteins in PBS were coated overnight onto flat bottomed micro-titre plates (Dynatech) at 37° C. and then blocked with either 2% BSA or 10% new-born calf serum (NCS) in PBS for 1 hour at 37° C. Specific binding of a second protein to the plate-bound protein was performed for 1.5-2 hours at ambient temperature. a Excess secondary protein was removed by washing four times with PBS, 0.3% Tween 20. Bound protein was detected by incubation for 1.5-2 hours with LP1 antibody in PBS, 1% gelatin or PBS, 2% NCS. The bound antibody was detected by incubation for 1 hour at ambient temperature with anti-mouse antibody conjugated to HRP (1:500) and visualised with Smg/ml enzyme substrate 2,2'-azino-bis(3-ethylbenzthiazoline-6-sulphonic acid) (ABTS; Sigma) in citrate-phosphate buffer containing 6 μl hydrogen peroxide in a total volume of 20 ml. Optical densities were measured on a Titertek Multiscan PLUS instrument.
To examine whether VP16 could bind directly to the peptides, wells were coated with each peptide (A-J) at a range of concentrations from […] to 500 μg/ml and the plate was then blocked with […]. […] Nonetheless, the data for peptides D and E implicate direct binding of these peptides to VP16 as the mechanism for inhibiting its interaction with VP22. Peptide H also was active in experiments which prevented gB binding to VP22trunc [Section 4 (iii)] and thus also forms an aspect of the invention.

[1] = Solubility of synthetic peptides in buffer; format: physicochemical; details: peptides dissolved in 20 mM Tris-HCl, pH 8.0, 250 mM NaCl; unpurified preparations
Method: Synthesis and Purification of Oligopeptides. Peptides were synthesised by continuous flow Fmoc chemistry (Atherton and Sheppard, 1989; McLean et al., 1991) and, where stated in the text, were purified by preparative reverse-phase HPLC (Owsianka et al., 1993). The Mr values of peptides were determined by fast atom bombardment mass spectrometry (M-Scan) and corresponded to the predicted values. Peptides were dissolved in 20 mM Tris-HCl, pH 8.0, 250 mM NaCl and centrifuged at 11,500 g for 1 minute prior to use. […] Precipitates were removed by centrifugation before use.

[2] = molecular target: T2, VP16/VP22trunc interaction (Human herpesvirus 1, UniProt P06492); experiment: ELISA of peptide inhibition of VP16 binding to VP22trunc; parameters: species or system HSV-1; details: D and E pure preparations, effect at 100 and 500 μg/ml; VP16 1.6 μg/ml; 160 ng VP22trunc; FIG. 9
T2 construct: Plasmid pETVP16 was used to express full-length VP16 under the control of the T7 RNA polymerase promoter; made in house; host or cells: E. coli BL21(DE3)
Method: FIG. 9 Inhibitory effect of peptides D and E on the VP22trunc-VP16 interaction in ELISAs. Microtitre plates were coated with 160 ng of VP22trunc and blocked with PBS/10% NCS. Before addition to the wells, five-fold dilutions of the peptides, ranging from 500 μg/ml to 1 g/ml, were incubated with VP16 (1.6 μg/ml). Bound VP16 was detected with LP1 at a dilution of 1:1000. The legend for the peptides added is shown to the right of the graph. Values are shown relative to those obtained in the absence of the peptide.
as §1
To adopt a more quantitative approach, an ELISA for VP16 binding to VP22trunc was developed. Optimal conditions were determined by coating wells with various quantities of VP22trunc followed by blocking with 2% BSA. Plates were then incubated with dilutions of VP16 and the bound VP16 detected with LP1.
The studies presented above have provided strong evidence in support of peptide inhibition of the interaction between VP16 and VP22. However, quantitative analysis of the ability of peptides to block any interaction is difficult to perform by the above methods. Therefore, using the ELISA system described in Results Section 2(iii) with the exception that PBS/10% NCS was utilised as a blocking agent, the inhibitory effects of peptides D and E were examined. This modification arose due to nonspecific binding of the peptides to wells when BSA was used for blocking (data not shown).

[3] = molecular target: T2, VP16/VP22trunc interaction; experiment: Far Western analysis of peptides blocking VP16 binding to immobilised VP22trunc; parameters: species or system HSV-1
Method: FIG. 7 Far Western analysis of the ability of peptides to block the interaction between VP16 and immobilised VP22trunc. Purified VP22trunc was added to partially purified extract of VP16 and the sample run on a 12% polyacrylamide gel. Proteins were then transferred to nitrocellulose membrane and the blot was cut into strips, with each strip containing approximately 1 g of VP22trunc. In (A), strips were pre-incubated with 1 mg of each of the following peptides: lane 2, no peptide, lane 3, peptide C; lane 4, peptide D; lane 5, peptide E; lane 6, peptide F; lane 7, peptides D and E; lane 8, peptides C and F. In (B) strips were pre-incubated with 1 mg of each of the following peptides: lane 2, no peptide, lane 3, peptide C; lane 4, purified peptide D; lane 5, purified peptide E; lane 6, peptide F. 24 g of pure VP16 was then added to strips 2 to 8 in (A) and strips 2 to 6 in (B), followed by incubation with LP1 antibody (1:1000 dilution). As a control, portions of the blot were incubated with LP1 or the 9220 antibody at a dilution of 1:1000 (lane 1 for LP1 in A and B; lane 9 in A and lane 7 in B for 9220). The apparent molecular weights of VP16 (65 KDa) and the dimer (32 KDa) and monomer (16 KDa) forms of VP22trunc are shown.
Following electrophoresis, proteins were electrotransferred to either Hybond or ProBlott (Applied Biosystems) membrane and the membrane was incubated in renaturation buffer (50 mM Tris-HCl, pH 8.0, 150 mM NaCl, 10% glycerol, 1 mM DTT) at 4° C. for 5-6 hours.
For membranes probed with either VP16 or VP22trunc, blocking was performed overnight as described for Western blot analysis. Probing with epitope-tagged VP22 or VP16 was performed in 20 mM Tris-HCl, pH 8.0, 250 mM NaCl for 1.5 hours at ambient temperature. Excess probe was removed by washing 4 times (10 minutes per wash) in 20 mM Tris-HCl, pH8.0, 250 mM NaCl, followed by incubation with the appropriate antibody at a dilution of 1:1000 in TTBS/1% gelatin for 1.5-2 hours. Bound antibody was detected as described for Western blot analysis.
Based on the studies with soluble VP16 and VP22trunc presented above, only a restricted number of peptides were examined by Far Western analysis to identify those that may prevent binding of VP16. Thus, VP22trunc was added to a crude extract of bacterially expressed VP16 and the proteins were electrophoresed on a polyacrylamide gel followed by transfer to a membrane. […] Before the addition of VP16 the blot strips in lanes 3 to 8 were incubated with crude preparations of peptides C, D, E, or E' as well as mixtures of either 0 and E or C and F. When the blot strips were incubated with peptides C and F either singly or in combination, VP16 bindincg to VP22trunc was not prevented (FIG. 7A, lanes 3, 6 and 8).

T1 sequence (P06492 whole entry): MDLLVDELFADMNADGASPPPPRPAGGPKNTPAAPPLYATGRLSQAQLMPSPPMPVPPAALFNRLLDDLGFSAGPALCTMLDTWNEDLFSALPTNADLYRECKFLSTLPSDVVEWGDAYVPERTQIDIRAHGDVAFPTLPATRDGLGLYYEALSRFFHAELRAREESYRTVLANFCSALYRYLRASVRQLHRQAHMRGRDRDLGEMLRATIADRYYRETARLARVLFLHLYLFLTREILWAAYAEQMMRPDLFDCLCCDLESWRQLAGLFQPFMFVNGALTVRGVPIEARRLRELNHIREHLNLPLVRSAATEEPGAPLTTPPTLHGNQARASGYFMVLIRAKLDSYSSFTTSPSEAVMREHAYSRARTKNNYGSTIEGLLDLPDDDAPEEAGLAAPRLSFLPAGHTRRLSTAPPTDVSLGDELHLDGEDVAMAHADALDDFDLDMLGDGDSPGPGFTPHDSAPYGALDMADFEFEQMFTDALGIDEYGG
T2 sequence (P06492 whole entry): as above

Sequence | Direct binding of VP16 to plate-coated peptide (ELISA) (VP16) | Solubility [1] | Inhibition of VP16 binding to VP22trunc in ELISA [2] | Blocking of VP16 binding to immobilised VP22trunc (Far Western), crude peptides ([3]; strips pre-incubated with 1 mg of crude peptide, FIG. 7A) | Blocking of VP16 binding to immobilised VP22trunc (Far Western), repeat with purified peptides D and E ([3]; strips pre-incubated with 1 mg peptide, D and E purified, FIG. 7B)
DVVQDVPDPERKTPRVTGG [Peptide J] | binding did not occur | soluble | – | – | –
GSHMARTAPTRSKTPAQGLA [Peptide A] | binding did not occur | soluble | – | – | –
KTPAQGLARKLHFSTAPPNP [Peptide B] | binding did not occur | soluble | neither peptides B, C nor F had any effect | – | –
NLLQRANELVNPDVVQDVPD [Peptide I] | binding did not occur | soluble | – | – | –
PRTDEDLNELLGITTIRVTV [Peptide G] | binding did not occur | partly; also recorded: partially insoluble | – | – | –
RMAAVQLWDMSRPRTDEDLN [Peptide F] | binding did not occur | soluble | neither peptides B, C nor F had any effect | not prevented | had no effect
